Positions count from the first letter of the chain named.
Assays:
[1] = target: T1, Recombinant Human DLL4 (delta-like protein 4) (human, UniProt Q9NR61 27-524); experiment: SPR, Fab on recombinant human DLL4; standard deviation in parentheses
T1 construct: Bought (R&D Systems Cat#1506-D4/CF); also called rHuman DLL4

[2] = target: T2, Recombinant Human DLL4 (R&D Systems, Cat#1506-D4/CF) (human, UniProt Q9NR61 27-529); experiment: Surface Plasmon Resonance, recombinant human DLL4
T2 construct: Bought protein; also called rHuman DLL4; delta-like protein 4

[3] = target: T3, rHuman ErbB2/Fc Chimera, CF (R&D Systems Cat#1129-ER) (human, UniProt P04626 23-652); experiment: MSD ECL multi-spot plate; Fab 24.5 nM; blank spot 149
T3 construct: also called HER2/neu; human epidermal growth factor 2 receptor; Fc part of the bought chimera not given

[4] = target: T4, rHuman IGF-1 sR, (IGF-1 sR), CF (R&D Systems Cat#391-GR) (human, UniProt P08069 31-932); experiment: as above
T4 construct: also called insulin-like growth factor-1 soluble receptor; IGF-R1

[5] = target: T5, rHuman P-Cadherin/Fc Chimera, CF (R&D Systems Cat#861-PC) (human, UniProt P22223 108-654); experiment: as above
T5 construct: Fc part of the bought chimera not given

[6] = target: T6, rHuman Erythropoietin R/Fc Chimera, CF (R&D Systems Cat#963-ER) (human, UniProt P19235 25-250); experiment: as above
T6 construct: also called EPO R/Fc; Epo R; Fc part of the bought chimera not given
T6 sequence: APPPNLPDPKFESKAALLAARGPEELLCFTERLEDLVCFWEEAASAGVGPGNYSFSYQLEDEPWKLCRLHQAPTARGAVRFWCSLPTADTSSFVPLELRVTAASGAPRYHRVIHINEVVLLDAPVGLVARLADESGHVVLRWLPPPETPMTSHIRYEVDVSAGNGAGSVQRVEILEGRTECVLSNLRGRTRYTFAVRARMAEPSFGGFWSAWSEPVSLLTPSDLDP

[7] = target: T7, rHuman HGF R/c-MET/Fc Chimera, CF (R&D Systems Cat#358-MT/CF) (human, UniProt P08581 25-932); experiment: as above
T7 construct: also called HGF R/Fc; hepatocyte growth factor receptor; Fc part of the bought chimera not given

[8] = target: T8, rHuman CD44/Fc Chimera, CF (R&D Systems Cat#3660-CD) (human, UniProt P16070 21-220); experiment: as above
T8 construct: Fc part of the bought chimera not given

[9] = target: T3, rHuman ErbB2/Fc Chimera, CF (R&D …); experiment: MSD ECL multi-spot plate; Fab 98.1 nM; blank spot 210
[10] = target: T4, rHuman IGF-1 sR, (IGF-1 sR), CF (R&D …); experiment: as above
[11] = target: T5, rHuman P-Cadherin/Fc Chimera, CF (R&D …); experiment: as above
[12] = target: T6, rHuman Erythropoietin R/Fc Chimera, CF …; experiment: as above
[13] = target: T7, rHuman HGF R/c-MET/Fc Chimera, CF (R&D …); experiment: as above
[14] = target: T8, rHuman CD44/Fc Chimera, CF (R&D Systems …); experiment: as above
[15] = target: T3, rHuman ErbB2/Fc Chimera, CF (R&D …); experiment: MSD ECL multi-spot plate; Fab 1570 nM; blank spot 866
[16] = target: T4, rHuman IGF-1 sR, (IGF-1 sR), CF (R&D …); experiment: as above
[17] = target: T5, rHuman P-Cadherin/Fc Chimera, CF (R&D …); experiment: as above
[18] = target: T6, rHuman Erythropoietin R/Fc Chimera, CF …; experiment: as above
[19] = target: T7, rHuman HGF R/c-MET/Fc Chimera, CF (R&D …); experiment: as above
[20] = target: T8, rHuman CD44/Fc Chimera, CF (R&D Systems …); experiment: as above
[21] = target: T3, rHuman ErbB2/Fc Chimera, CF (R&D …); experiment: MSD ECL multi-spot plate; Fab 392.5 nM; blank spot 338
[22] = target: T4, rHuman IGF-1 sR, (IGF-1 sR), CF (R&D …); experiment: as above
[23] = target: T5, rHuman P-Cadherin/Fc Chimera, CF (R&D …); experiment: as above
[24] = target: T6, rHuman Erythropoietin R/Fc Chimera, CF …; experiment: as above
[25] = target: T7, rHuman HGF R/c-MET/Fc Chimera, CF (R&D …); experiment: as above
[26] = target: T8, rHuman CD44/Fc Chimera, CF (R&D Systems …); experiment: as above

B1: Fab VH1-46_IGHD6-6*01_IGHJ1*01 & L6_IGKJ1*01 (Fab, V domains shown)
VH: QVQLVQSGAEVKKPGASVKVSCKASGYTFTSYYMHWVRQAPGQGLEWMGIINPSGGSTSYAQKFQGRVTMTRDTSTSTVYMELSSLRSEDTAVYYCAREEYSSSSAEYFQHWGQGTLVTVSS
VL: not shown
notes: Germline Fab from E. coli; VH joined to CH1 with Flag/His tags (Plasmid A), VL to kappa constant region (Plasmid C)
Kd [1]: 730 nM
koff [1]: 0.101 s⁻¹
kon [1]: 163000 M⁻¹ s⁻¹

B2: Fab VH1-46_IGHD6-6*01_IGHJ1*01_S102A_S103P_S104F & L6_IGKJ1*01 (Fab, V domains shown)
VH: B1 VH with S102A, S103P, S104F
VL: not shown
notes: Modified anti-DLL4 Fab; kappa Plasmid C)
Kd [1]: 122 nM
koff [1]: 0.0492 s⁻¹
kon [1]: 405000 M⁻¹ s⁻¹

B3: Fab VH1-46_IGHD6-6*01>1_IGHJ1*01_S104F & L6_IGKJ1*01 (Fab, V domains shown)
VH: B1 VH with S104F
VL: not shown
notes: as for B2
Kd [1]: 380 nM
koff [1]: 0.19 s⁻¹
kon [1]: 500000 M⁻¹ s⁻¹

B4: Fab VH1-46_IGHD6-6*01_IGHJ1*01_S102A_S103P_S104F & L6_IGKJ1*01_S31K (Fab, V domains shown)
VH: B1 VH with S102A, S103P, S104F
VL: EIVLTQSPATLSLSPGERATLSCRASQSVSKYLAWYQQKPGQAPRLLIYDASNRATGIPARFSGSGSGTDFTLTISSLEPEDFAVYYCQQRSNWPPWTFGQGTKVEIKR
notes: Modified anti-DLL4 Fab
Kd [1]: 112 nM
koff [1]: 0.0392 s⁻¹
kon [1]: 350000 M⁻¹ s⁻¹

B5: Fab VH1-46_IGHD6-6*01_IGHJ1*01_S102A_S103P_S104F_H111F & L6_IGKJ1*01 (Fab, V domains shown)
VH: B1 VH with S102A, S103P, S104F, H111F
VL: not shown
notes: as for B2
Kd [1]: 70.6 nM
koff [1]: 0.03 s⁻¹
kon [1]: 425000 M⁻¹ s⁻¹

B6: Fab VH1-46_IGHD6-6*01_IGHJ1*01_S102A_S103P_S104F_H111Y & L6_IGKJ1*01 (Fab, V domains shown)
VH: B1 VH with S102A, S103P, S104F, H111Y
VL: not shown
notes: as for B2
Kd [1]: 93.1 nM
koff [1]: 0.0317 s⁻¹
kon [1]: 340000 M⁻¹ s⁻¹

B7: Fab VH1-46_IGHD6-6*01_IGHJ1*01_S102A_S103P_S104F_H111F & L6_IGKJ1*01 (Fab, V domains shown)
VH: B1 VH with S102A, S103P, S104F, H111F
VL: not shown
notes: Modified Fab
Kd [2]: 70.6 nM

B8: Fab VH1-46_IGHD6-6*01>1_IGHJ1*01_S104F & L6_IGKJ1*01 (Fab, V domains shown)
VH: B1 VH with S104F
VL: not shown
notes: Modified Fab
Kd [2]: 388 nM

B9: Fab VH6-1_IGHD3-3*01_IGHJ4*01 & V4-3_IGLJ4*01 (Fab, V domains shown)
VH: QVQLQQSGPGLVKPSQTLSLTCAISGDSVSSNSAAWNWIRQSPSRGLEWLGRTYYRSKWYNDYAVSVKSRITINPDTSKNQFSLQLNSVTPEDTAVYYCAREYYDFWSGYYTDYFDYWGQGTLVTVSS
VL: QPVLTQPTSLSASPGASARLTCTLRSGINLGSYRIFWYQQKPESPPRYLLSYYSDSSKHQGSGVPSRFSGSKDASSNAGILVISGLQSEDEADYYCMIWHSSASFVFGGGTQLIIL
notes: Germline Fab from E. coli; VH joined to CH1 with Flag/His tags (Plasmid A), VL to lambda constant region (Plasmid E)
Kd [1]: 38000 nM

B10: Fab VH6-1_IGHD3-3*01_IGHJ4*01 & V4-3_IGLJ4*01 (Fab, V domains shown)
VH: B9 VH
VL: B9 VL
notes: Fab from E. coli; VH joined to CH1 with Flag and His tags (Plasmid A), VL to lambda CL (Plasmid E)
Kd [2]: 38000 nM

B11: Fab VH1-46_IGHD3-10*01_IGHJ4*01 & O1_IGKJ1*01 (Fab, V domains shown)
VH: QVQLVQSGAEVKKPGASVKVSCKASGYTFTSYYMHWVRQAPGQGLEWMGIINPSGGSTSYAQKFQGRVTMTRDTSTSTVYMELSSLRSEDTAVYYCAREYYYGSGSYYNDYFDYWGQGTLVTVSS
VL: DIVMTQTPLSLPVTPGEPASISCRSSQSLLDSDDGNTYLDWYLQKPGQSPQLLIYTLSYRASGVPDRFSGSGSGTDFTLKISRVEAEDVGVYYCMQRIEFPSWTFGQGTKVEIK
notes: It was expressed in E. coli as a Fab; The heavy chain carries CH1 from Plasmid A with Flag and His tags; The light chain carries the kappa constant region from Plasmid C
ECL signal [3]: 241 ECL signal
ECL signal [4]: 239 ECL signal
ECL signal [5]: 257 ECL signal
ECL signal [6]: 4530 ECL signal
ECL signal [7]: 211 ECL signal
ECL signal [8]: 267 ECL signal
ECL signal [9]: 247 ECL signal
ECL signal [10]: 309 ECL signal
ECL signal [11]: 347 ECL signal
ECL signal [12]: 5630 ECL signal
ECL signal [13]: 335 ECL signal
ECL signal [14]: 265 ECL signal
ECL signal [15]: 1260 ECL signal
ECL signal [16]: 1430 ECL signal
ECL signal [17]: 1790 ECL signal
ECL signal [18]: 6120 ECL signal
ECL signal [19]: 1640 ECL signal
ECL signal [20]: 1380 ECL signal
ECL signal [21]: 539 ECL signal
ECL signal [22]: 466 ECL signal
ECL signal [23]: 459 ECL signal
ECL signal [24]: 5860 ECL signal
ECL signal [25]: 581 ECL signal
ECL signal [26]: 498 ECL signal

B12: Fab VH1-46_IGHD3-10*01_IGHJ4*01 & L12_IGKJ1*01 (Fab, V domains shown)
VH: B11 VH
VL: not shown
Kd [1]: 500 nM
koff [1]: 0.29 s⁻¹
kon [1]: 500000 M⁻¹ s⁻¹

B13: Fab VH5-51_IGHD5-18*01>3_IGHJ4*01 & V3-4_IGLJ1*01 (Fab, V domains shown)
VH: EVQLVQSGAEVKKPGESLKISCKGSGYSFTSYWIGWVRQMPGKGLEWMGIIYPGDSDTRYSPSFQGQVTISADKSISTAYLQWSSLKASDTAMYYCARRGYSYGYDYFDYWGQGTLVTVSS
VL: QTVVTQEPSFSVSPGGTVTLTCGLSSGSVSTSYYPSWYQQTPGQAPRTLIYSTNTRSSGVPDRFSGSILGNKAALTITGAQADDESDYYCVLYMGSGISYVFGTGTKVTVL
notes: as for B9
Kd [1]: 4800 nM
